± gives the uncertainty stated by the source.

This data set is described as follows: amyloid nucleation score (Sup35N fusion, yeast selection) (log enrichment); library NNK1; higher = more nucleation; inactive = no reads after selection. The procedure, abridged: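 The nucleation score is the log enrichment of output over input reads, calculated with DiMSum and centred on the mode score of non-aggregating sequences. Sequences with under 100 input reads were excluded. Reads came from Illumina sequencing of plasmid inserts from psi-negative yeast expressing Sup35N fused to peptides of 20 random codons, induced 24 hours with 100 μM copper sulfate and grown 7 days at 30°C without adenine and uracil.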
In the case of SCLMY, the amyloid nucleation score result was “inactive”.
In the case of VCISWLRDTGADC it was 2.12 ± 0.23.
Substance GREMYRLLHLNVEYTHGTRY displayed an amyloid nucleation score of 3.79 ± 0.075.
Consider ITLVDVVG, for which the amyloid nucleation score was 0.082 ± 0.34.
MGTSITI yielded an amyloid nucleation score of -0.202 ± 0.84.
As for SGHRFCAVRSRATGERFYGW, the amyloid nucleation score result was “inactive”.
With GKPLTTVVAIIF the figure was 3.56 ± 0.11.
Regarding VSNFLSYNRWAHHGLFNSSF, the amyloid nucleation score was 0.553 ± 0.53.
Substance TFYLSRDIRLYFSWN displayed an amyloid nucleation score of 7.83 ± 0.049.
For the substance VRNETSCTAIVFRSE, the amyloid nucleation score amounted to 0.14 ± 0.22.
In the case of LVMFEIKLMRFNFTMRSVRR it was 2.91 ± 0.13.
SSKLDVCEFADDGQLVFGVG: the amyloid nucleation score is -0.394 ± 0.61.
KDVLVRFMYLG: the amyloid nucleation score is -0.21 ± 0.68.
Consider DCLSSGFLDTLYVVQVRGSD, for which the amyloid nucleation score result is “inactive”.
The substance QLAAWSGFN yielded an amyloid nucleation score of 0.522 ± 0.28.
In turn, IYRLDTI came in with an amyloid nucleation score of -0.864 ± 0.75.
In the case of YFCILGSNDSNRIGWPRRST it was 0.101 ± 0.42; in that of KKFRVGVDLSRCTLGLENYK, 4.3 ± 0.059.
RALCLWTCKSYMFRN showed an amyloid nucleation score of -0.13 ± 1.1.
AEHYPGIVVCLSLCDS gave an amyloid nucleation score of -1.77 ± 2.4.
The substance FASDRLYWTWK registered an amyloid nucleation score of 0.255 ± 0.53.
In the case of HSVNYTLSQVNGSGLVFRAF it was 2.41 ± 0.12; in that of RNLLNFFKISDTSTALDLLY, -0.728 ± 0.52.
For IFYIYLRGLVMIVRRSMVIR, the amyloid nucleation score result was “inactive”.
With IFYSLQLVTARSTEVMGDTP, the amyloid nucleation score is 1.1 ± 0.88.
In the case of VSTQIRRDGYDYAAVGHC it was 0.009 ± 0.8.
In turn, KRMDKPWTPGYTAMHWVDNM displayed an amyloid nucleation score of 0.612 ± 0.52.
The substance QIFVWAFPPSGVSGHVWSRD registered an amyloid nucleation score of 6.497 ± 0.049.
Turning to FSFGIVSVMGYVLYRRRPWA, the amyloid nucleation score is 1.08 ± 0.63.
In turn, GDFKTRLFSCLDSRLILGRG came in with an amyloid nucleation score of -0.485 ± 1.5.
Substance RYNAILAWCSLRKTGVYFLV showed an amyloid nucleation score of 1.09 ± 1.
GFSKMLLAIVSIQDKGSWDA came in with an amyloid nucleation score of 2.41 ± 0.17.
In the case of FSCKSAPQFCRWG it was 0.718 ± 0.42; in that of SDWGGVMVDRGSGW, 1.36 ± 0.47; in that of TFVQF, -0.066 ± 0.51.
In the case of LKTGGSPNLVANYMYDRCAG it was 0.581 ± 0.38; in that of FFRTLTWR, 1.11 ± 0.55; in that of DMGSHIARSTKMVPICGGSR, -0.259 ± 1.4.
Substance MNLSVSVPVHTRLDMMFM yielded an amyloid nucleation score of 5.616 ± 0.049.
In the case of RFRVVNSCSTKPLLNEKLFG, the amyloid nucleation score result was “inactive”.
For the substance FILIYTAPFIGGLVGLGDGH, the amyloid nucleation score result is “inactive”.
Substance YQRSTWSSWNQVRYYHEFQR registered an amyloid nucleation score of 1.59 ± 0.3.
In the case of AFMYYTGATIMHLQSANGGL, the amyloid nucleation score is 2.27 ± 0.17.
EICMRPY returned an amyloid nucleation score of -0.081 ± 1.1.
In the case of LGQEL it was 0.416 ± 0.39; in that of GGFWPICYWNLRASEPLQDS, 0.173 ± 0.63; in that of NRKAPFNQA, -1.09 ± 1.4.
With RVVLCDI the figure was 0.261 ± 0.75; with SRKCGDVCSKDGRPVCPGTE, 1.67 ± 0.15; with VNDQAGRLGD, 0.904 ± 0.61.
Take YVILFVIVVGSA: the amyloid nucleation score was 0.654 ± 0.84.
In the case of NPPWQCGVRHDHLWVTSYHS, the amyloid nucleation score was -0.481 ± 0.32.
In the case of TIWCVD it was 1.01 ± 0.28; in that of VRSNGYHVMFNTINRVWDTV, 0.672 ± 0.44.
As for GDCFFQSYDTVFNFASR, the amyloid nucleation score stood at 2.24 ± 0.2.
With FLVQNRRISEVIELWALLS the figure was -1.19 ± 2.7; with WDMAFSVALGLRYMRCGLKL, -0.286 ± 0.35.
As to HSNYFPKSLYVLGLFCSTVS, the amyloid nucleation score stood at 6.22 ± 0.065.

The values are drawn from the supplement of paper PMC12042874.
